Laboratory results taken from PMC2955986 (Journal of thrombosis and haemostasis : JTH, 2010).

Columns and labels:
TFPI (Homo sapiens) = TFPI (Homo sapiens) (UniProt P10646); details: cited from earlier work
[1] = molecular target: T1, Zn^2+-containing protein S (immunoaffinity-purified) (UniProt P07225 42-676); assay: fluid phase binding assay
T1 sequence (looked up): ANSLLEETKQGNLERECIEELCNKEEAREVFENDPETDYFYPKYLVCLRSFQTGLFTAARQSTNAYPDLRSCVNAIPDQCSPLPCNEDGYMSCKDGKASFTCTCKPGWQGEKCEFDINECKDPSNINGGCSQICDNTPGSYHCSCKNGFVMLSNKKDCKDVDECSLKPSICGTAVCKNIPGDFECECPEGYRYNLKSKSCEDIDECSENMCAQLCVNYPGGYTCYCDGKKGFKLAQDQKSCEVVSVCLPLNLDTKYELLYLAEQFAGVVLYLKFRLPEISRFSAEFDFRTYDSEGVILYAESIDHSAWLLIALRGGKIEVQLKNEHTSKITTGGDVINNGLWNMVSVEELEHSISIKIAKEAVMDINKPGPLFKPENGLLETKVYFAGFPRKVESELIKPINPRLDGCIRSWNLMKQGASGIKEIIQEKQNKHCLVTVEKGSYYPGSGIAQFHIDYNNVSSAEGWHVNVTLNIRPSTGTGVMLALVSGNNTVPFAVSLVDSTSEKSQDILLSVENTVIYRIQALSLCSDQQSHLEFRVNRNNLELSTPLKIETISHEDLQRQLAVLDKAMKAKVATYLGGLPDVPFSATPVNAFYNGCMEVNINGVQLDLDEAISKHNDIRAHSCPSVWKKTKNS

Factor X [2] = assay: fluid phase binding assay
[3] = molecular target: Soluble tissue factor (residues 1-218); assay: fluid phase binding assay
[4] = molecular target: Soluble tissue factor (residues 1-218); assay: fluid phase binding assay; remark: listed apart in the source
[5] = molecular target: Soluble tissue factor (residues 1-218); assay: ELISA
factor X [6] = molecular target: T2, factor X (Homo sapiens, UniProt P00742)
T2 chain: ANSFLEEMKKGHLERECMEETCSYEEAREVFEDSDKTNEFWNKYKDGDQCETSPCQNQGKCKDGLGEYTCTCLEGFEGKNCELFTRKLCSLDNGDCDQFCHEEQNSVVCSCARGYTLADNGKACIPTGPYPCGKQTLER

Chain of TFPI (Homo sapiens) (P10646 29-304): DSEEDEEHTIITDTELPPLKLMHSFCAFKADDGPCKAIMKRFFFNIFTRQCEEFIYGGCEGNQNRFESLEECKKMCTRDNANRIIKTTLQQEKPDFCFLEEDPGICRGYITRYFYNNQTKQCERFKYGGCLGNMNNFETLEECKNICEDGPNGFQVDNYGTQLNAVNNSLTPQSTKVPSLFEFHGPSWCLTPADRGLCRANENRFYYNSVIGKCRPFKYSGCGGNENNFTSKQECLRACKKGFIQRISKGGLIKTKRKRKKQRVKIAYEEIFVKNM

protein S (from UniProt P07225)
Kd (TFPI (Homo sapiens)): 21 nM

B1: Full length nonlipidated tissue factor (natural protein, UniProt P13726 33-295, looked up)
chain: SGTTNTVAAYNLTWKSTNFKTILEWEPKPVNQVYTVQISTKSGDWKSKCFYTTDTECDLTDEIVKDVKQTYLARVFSYPAGNVESTGSAGEPLYENSPEFTPYLETNLGQPTIQSFEQVGTKVNVTVEDERTLVRRNNTFLSLRDVFGKDLIYTLYYWKSSSSGKKTAKTNTNEFLIDVDKGENYCFSVQAVIPSRTVNRKSTDSPVECMGQEKGEFREIFYIIGAVVFVVIILVIILAISLHKCRKAGVGQSWKENSPLNVS
Kd [1]: 41 nM

B2: Zn^2+-containing protein S (immunoaffinity-purified) (natural protein)
chain: ANSLLEETKQGNLERECIEELCNKEEAREVFENDPETDYFYPKYLVCLRSFQTGLFTAARQSTNAYPDLRSCVNAIPDQCSPLPCNEDGYMSCKDGKASFTCTCKPGWQGEKCEFDINECKDPSNINGGCSQICDNTPGSYHCSCKNGFVMLSNKKDCKDVDECSLKPSICGTAVCKNIPGDFECECPEGYRYNLKSKSCEDIDECSENMCAQLCVNYPGGYTCYCDGKKGFKLAQDQKSCEVVSVCLPLNLDTKYELLYLAEQFAGVVLYLKFRLPEISRFSAEFDFRTYDSEGVILYAESIDHSAWLLIALRGGKIEVQLKNEHTSKITTGGDVINNGLWNMVSVEELEHSISIKIAKEAVMDINKPGPLFKPENGLLETKVYFAGFPRKVESELIKPINPRLDGCIRSWNLMKQGASGIKEIIQEKQNKHCLVTVEKGSYYPGSGIAQFHIDYNNVSSAEGWHVNVTLNIRPSTGTGVMLALVSGNNTVPFAVSLVDSTSEKSQDILLSVENTVIYRIQALSLCSDQQSHLEFRVNRNNLELSTPLKIETISHEDLQRQLAVLDKAMKAKVATYLGGLPDVPFSATPVNAFYNGCMEVNINGVQLDLDEAISKHNDIRAHSCPSVWKKTKNS
Kd (Factor X [2]): 127 nM | Kd [3]: 41 nM | Kd [4]: 41 nM

B3: Zn^2+-reconstituted commercial protein S (natural protein)
chain: ANSLLEETKQGNLERECIEELCNKEEAREVFENDPETDYFYPKYLVCLRSFQTGLFTAARQSTNAYPDLRSCVNAIPDQCSPLPCNEDGYMSCKDGKASFTCTCKPGWQGEKCEFDINECKDPSNINGGCSQICDNTPGSYHCSCKNGFVMLSNKKDCKDVDECSLKPSICGTAVCKNIPGDFECECPEGYRYNLKSKSCEDIDECSENMCAQLCVNYPGGYTCYCDGKKGFKLAQDQKSCEVVSVCLPLNLDTKYELLYLAEQFAGVVLYLKFRLPEISRFSAEFDFRTYDSEGVILYAESIDHSAWLLIALRGGKIEVQLKNEHTSKITTGGDVINNGLWNMVSVEELEHSISIKIAKEAVMDINKPGPLFKPENGLLETKVYFAGFPRKVESELIKPINPRLDGCIRSWNLMKQGASGIKEIIQEKQNKHCLVTVEKGSYYPGSGIAQFHIDYNNVSSAEGWHVNVTLNIRPSTGTGVMLALVSGNNTVPFAVSLVDSTSEKSQDILLSVENTVIYRIQALSLCSDQQSHLEFRVNRNNLELSTPLKIETISHEDLQRQLAVLDKAMKAKVATYLGGLPDVPFSATPVNAFYNGCMEVNINGVQLDLDEAISKHNDIRAHSCPSVWKKTKNS
Kd [5]: 39 nM

B4: protein S (protein)
chain: ANSLLEETKQGNLERECIEELCNKEEAREVFENDPETDYFYPKYLVCLRSFQTGLFTAARQSTNAYPDLRSCVNAIPDQCSPLPCNEDGYMSCKDGKASFTCTCKPGWQGEKCEFDINECKDPSNINGGCSQICDNTPGSYHCSCKNGFVMLSNKKDCKDVDECSLKPSICGTAVCKNIPGDFECECPEGYRYNLKSKSCEDIDECSENMCAQLCVNYPGGYTCYCDGKKGFKLAQDQKSCEVVSVCLPLNLDTKYELLYLAEQFAGVVLYLKFRLPEISRFSAEFDFRTYDSEGVILYAESIDHSAWLLIALRGGKIEVQLKNEHTSKITTGGDVINNGLWNMVSVEELEHSISIKIAKEAVMDINKPGPLFKPENGLLETKVYFAGFPRKVESELIKPINPRLDGCIRSWNLMKQGASGIKEIIQEKQNKHCLVTVEKGSYYPGSGIAQFHIDYNNVSSAEGWHVNVTLNIRPSTGTGVMLALVSGNNTVPFAVSLVDSTSEKSQDILLSVENTVIYRIQALSLCSDQQSHLEFRVNRNNLELSTPLKIETISHEDLQRQLAVLDKAMKAKVATYLGGLPDVPFSATPVNAFYNGCMEVNINGVQLDLDEAISKHNDIRAHSCPSVWKKTKNS
modifications: Zn2+-containing
Kd (factor X [6]): ~130 nM
